Experimental data: patent US20250042997A1 (PHYLAXIS BIOSCIENCE, published 2025)
Where two headings read alike, the source gives them in different places.

Key:
[1] = target: T1, human Siglec-8 (full-length, on transfected CHO or 293 cells, or native on human eosinophils) (human, UniProt Q9NYZ4 17-499); test: flow cytometry on CHO cells transfected with human Siglec-8; labelled anti-human Fc-gamma secondary; Median RL1-H
Experimental: In additional studies, the parental llama G2 sequence was humanized and multivalent hzSiglec8-G2v14-Fc antibodies were cloned with a reduced effector function xELL human Fe. Binding of bivalent (ex11422; SEQ ID NO: 5 linked to an Fe xELL via linker 2), tetravalent (cx11580; SEQ ID NO: 9 linked to an Fe xELL via linker 2), and hexavalent (cx11579; SEQ ID NO: 10 linked to an Fe xELL via linker 2) hzSiglec8-G2v14-Fc antibodies were assessed by flow cytometry using CHO cells transfected with human Siglec-8. A titration series of the fusion proteins were incubated with the Siglec8-expressing CHO cells (5×10⁴ cells/well) for 30 minutes at 4° C. in FACS Buffer (PBS 1% BSA, 0.1% NaN3 pH 7.4) in 96 well plates. Following one 150 μL wash with FACS buffer, an APC-conjugated anti-human Fcγ specific secondary antibody (Jackson ImmunoResearch) was added, and cells were incubated for 30 minutes at 4° C. Following one additional wash in FACS buffer, bound antibodies were detected via flow cytometry (iQue Intellicyte).
The calculated affinity was similar between the bivalent, tetravalent, and hexavalent hzSiglec8-G2v14-Fc antibodies. The observed Bmax was reduced with increasing valency as anticipated, due the fact that the Fc portion of the antibody was detected in this assay and the ratio of Fc regions to anti-Siglec-8 binding domains is inverse to valency.

[2] = target: T1, human Siglec-8 (full-length, on …); test: flow cytometry on 293 cells transiently transfected with full-length human Siglec-8; A647 anti-human Fc-gamma secondary; median fluorescence, nonlinear fit; table under the graph
Experimental: (§1) The binding of the lmG2 and humanized versions (further including Siglec8 hzG2v14), formatted as monomeric VHH-hIgG1 fusions proteins using a non-dimerizing human IgG1 Fe variant region lacking a hinge Fe NNT, was assessed by flow cytometry using 293 cells that had been transiently transfected with full-length human Siglec-8 and detected with an anti-human AF647 secondary antibody. Binding specificity was assessed using untransfected 293 cells as a control. For the binding assays, Siglec-8 293 cells or untransformed 293 cells were seeded in a 96 well U-bottom plate with 50 k cells/well in FACS buffer and incubated at 4° C. with a titration of anti-Siglec8-VHH-NNT for 30 minutes. After washing, the plates were incubated with an A647-conjugated anti-human Fcγ specific secondary antibody diluted 1:10,000 in FACS buffer for 20 minutes at 4° C. The plates were washed, and binding was determined by flow cytometry quantitating anti-human A647 median fluorescent intensity. The maximum specific binding (Bmax) and affinity (Kd) for was determined from the flow cytometry binding data using a nonlinear fit model.

[3] = target: T1, human Siglec-8 (full-length, on …); test: as above; remark: listed apart in the source
Experimental: as §1

[4] = target: T1, human Siglec-8 (full-length, on …); test: as above; remark: listed apart in the source
Experimental: as §1

[5] = target: T1, human Siglec-8 (full-length, on …); test: flow cytometry on 293 cells transiently transfected with full-length human Siglec-8; A647 anti-human Fc-gamma secondary; median fluorescence, nonlinear fit; table under the graph (Kd column without unit, concentration axis nM Ab)
Experimental: as §1

[6] = target: T1, human Siglec-8 (full-length, on …); test: as above; remark: listed apart in the source
Experimental: as §1

[7] = target: T1, human Siglec-8 (full-length, on …); test: as above; remark: listed apart in the source
Experimental: as §1

[8] = target: T1, human Siglec-8 (full-length, on …); test: cell-based or functional assay

T1 sequence (Q9NYZ4 17-499): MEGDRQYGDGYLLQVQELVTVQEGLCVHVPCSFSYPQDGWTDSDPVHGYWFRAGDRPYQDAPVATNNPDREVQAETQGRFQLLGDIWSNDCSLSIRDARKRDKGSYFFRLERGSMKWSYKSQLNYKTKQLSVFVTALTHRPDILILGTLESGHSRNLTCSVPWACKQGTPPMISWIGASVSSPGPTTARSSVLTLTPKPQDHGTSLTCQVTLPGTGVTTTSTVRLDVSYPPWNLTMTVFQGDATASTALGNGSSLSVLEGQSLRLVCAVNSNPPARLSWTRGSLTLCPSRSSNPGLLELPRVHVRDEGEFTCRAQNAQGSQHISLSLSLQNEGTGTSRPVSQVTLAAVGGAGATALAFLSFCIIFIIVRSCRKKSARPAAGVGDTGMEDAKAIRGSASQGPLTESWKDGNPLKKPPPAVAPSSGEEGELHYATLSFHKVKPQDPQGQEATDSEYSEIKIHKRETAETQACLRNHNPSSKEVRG

| Binder | EC50 (read off the curve) [1] | Bmax [4] | Kd [7] | other results |
| --- | --- | --- | --- | --- |
| hexavalent hzSiglec8-G2v14-Fc (xELL) (Fc fusion, Homodimer through the Fc; also called cx11579) EVQLLESGGGEVQPGGSLRLSCAASGSISIFSMYVVAWYRQAPGKEREWVAFIQRGGTANYAESAKGRFTISRDNAKNTVYLQMSSLRAEDTAVYYCNYINTDNEIGGPWGQGTLVTVKPGGSGGSEVQLLESGGGEVQPGGSLRLSCAASGSISIFSMYVVAWYRQAPGKEREWVAFIQRGGTANYAESAKGRFTISRDNAKNTVYLQMSSLRAEDTAVYYCNYINTDNEIGGPWGQGTLVTVKPGGSGGSEVQLLESGGGEVQPGGSLRLSCAASGSISIFSMYVVAWYRQAPGKEREWVAFIQRGGTANYAESAKGRFTISRDNAKNTVYLQMSSLRAEDTAVYYCNYINTDNEIGGPWGQGTLVTVKPGGGGDKTHTCPPCPAPGGPSVFLFPPKPKDTLMISRTPEVTCVVVDVSHEDPEVKFNWYVDGVEVHNAKTKPREEQYNSTYRVVSVLTVLHQDWLNGKEYKCKVSNKALPAPIEKTISKAKGQPREPQVYTLPPSRDELTKNQVSLTCLVKGFYPSDIAVEWESNGQPENNYKTTPPVLDSDGSFFLYSKLTVDKSRWQQGNVFSCSVMHEALHNHYTQKSLSLSPGK | ~0.02 nM |  |  |  |
| llama anti-Siglec8-G2 VHH (lmG2), monomeric VHH-hIgG1 fusion (Fc NNT) (Fc fusion, Monomeric format; also called parental clone; not shown: non-dimerizing human IgG1 Fc variant lacking a hinge (Fc NNT)) QVTLKESGGGLVRTGGSLRLSCAASGSISIFSMYVVAWYRQAPGKQREWVAFIQRGGTANYADSAKGRFTISRDNAKNTVYLQMASLKPDDTAVYYCNYINSDNEIGGPWGQGTQVTVKP |  | 1.15e+06 Median (anti-human A647) | 0.0637 nM | Bmax [2]: 1.28e+06 Median (anti-human A647); Bmax [3]: 1.36e+06 Median (anti-human A647); Kd [5]: 0.124 nM; Kd [6]: 0.114 nM |
| Siglec8 hzG2v33, monomeric VHH-hIgG1 fusion (Fc NNT) (Fc fusion, Monomeric format; not shown: non-dimerizing human IgG1 Fc variant lacking a hinge (Fc NNT)) EVQLLESGGGEVQTGGSLRLSCAASGSISIFSMYVVAWYRQAPGKQREWVAFIQRGGTANYAESAKGRFTISRDNAKNTVYLQMSSLRADDTAVYYCNYINSDNEIGGPWGQGTLVTVKP |  | 1.39e+06 Median (anti-human A647) | 0.0979 nM |  |
| Siglec8 hzG2v32, monomeric VHH-hIgG1 fusion (Fc NNT) (Fc fusion, Monomeric format; not shown: non-dimerizing human IgG1 Fc variant lacking a hinge (Fc NNT)) EVQLLESGGGEVQTGGSLRLSCAASGSISIFSMYVVAWYRQAPGKQREWVAFIQRGGTANYAESAKGRFTISRDNAKNTVYLQMSSLRPEDTAVYYCNYINSDNEIGGPWGQGTLVTVKP |  | 1.45e+06 Median (anti-human A647) | 0.0643 nM |  |
| tetravalent hzSiglec8-G2v14-Fc (xELL) (Fc fusion, Homodimer through the Fc; also called cx11580) EVQLLESGGGEVQPGGSLRLSCAASGSISIFSMYVVAWYRQAPGKEREWVAFIQRGGTANYAESAKGRFTISRDNAKNTVYLQMSSLRAEDTAVYYCNYINTDNEIGGPWGQGTLVTVKPGGSGGSEVQLLESGGGEVQPGGSLRLSCAASGSISIFSMYVVAWYRQAPGKEREWVAFIQRGGTANYAESAKGRFTISRDNAKNTVYLQMSSLRAEDTAVYYCNYINTDNEIGGPWGQGTLVTVKPGGGGDKTHTCPPCPAPGGPSVFLFPPKPKDTLMISRTPEVTCVVVDVSHEDPEVKFNWYVDGVEVHNAKTKPREEQYNSTYRVVSVLTVLHQDWLNGKEYKCKVSNKALPAPIEKTISKAKGQPREPQVYTLPPSRDELTKNQVSLTCLVKGFYPSDIAVEWESNGQPENNYKTTPPVLDSDGSFFLYSKLTVDKSRWQQGNVFSCSVMHEALHNHYTQKSLSLSPGK | ~0.04 nM |  |  | potency of eosinophil killing in the presence of IL-5, fold improvement over the afucosylated AK002 analog [8]: ~30 fold; potency of eosinophil killing in the presence of IL-5, fold increase compared to bivalent hzSiglec8-G2v14-Fc [8]: 10 fold |
